# Reference: article PMC2566858 (Nucleic Acids Research, 2008)
# Numbering of substitutions follows the chain as printed. Where two headings read alike, the source gives them in different places.
# T1: rGyr_fl Y851F (full-length reverse gyrase) (Thermotoga maritima, UniProt O51934 1-1104, Y851F)
# T1 sequence: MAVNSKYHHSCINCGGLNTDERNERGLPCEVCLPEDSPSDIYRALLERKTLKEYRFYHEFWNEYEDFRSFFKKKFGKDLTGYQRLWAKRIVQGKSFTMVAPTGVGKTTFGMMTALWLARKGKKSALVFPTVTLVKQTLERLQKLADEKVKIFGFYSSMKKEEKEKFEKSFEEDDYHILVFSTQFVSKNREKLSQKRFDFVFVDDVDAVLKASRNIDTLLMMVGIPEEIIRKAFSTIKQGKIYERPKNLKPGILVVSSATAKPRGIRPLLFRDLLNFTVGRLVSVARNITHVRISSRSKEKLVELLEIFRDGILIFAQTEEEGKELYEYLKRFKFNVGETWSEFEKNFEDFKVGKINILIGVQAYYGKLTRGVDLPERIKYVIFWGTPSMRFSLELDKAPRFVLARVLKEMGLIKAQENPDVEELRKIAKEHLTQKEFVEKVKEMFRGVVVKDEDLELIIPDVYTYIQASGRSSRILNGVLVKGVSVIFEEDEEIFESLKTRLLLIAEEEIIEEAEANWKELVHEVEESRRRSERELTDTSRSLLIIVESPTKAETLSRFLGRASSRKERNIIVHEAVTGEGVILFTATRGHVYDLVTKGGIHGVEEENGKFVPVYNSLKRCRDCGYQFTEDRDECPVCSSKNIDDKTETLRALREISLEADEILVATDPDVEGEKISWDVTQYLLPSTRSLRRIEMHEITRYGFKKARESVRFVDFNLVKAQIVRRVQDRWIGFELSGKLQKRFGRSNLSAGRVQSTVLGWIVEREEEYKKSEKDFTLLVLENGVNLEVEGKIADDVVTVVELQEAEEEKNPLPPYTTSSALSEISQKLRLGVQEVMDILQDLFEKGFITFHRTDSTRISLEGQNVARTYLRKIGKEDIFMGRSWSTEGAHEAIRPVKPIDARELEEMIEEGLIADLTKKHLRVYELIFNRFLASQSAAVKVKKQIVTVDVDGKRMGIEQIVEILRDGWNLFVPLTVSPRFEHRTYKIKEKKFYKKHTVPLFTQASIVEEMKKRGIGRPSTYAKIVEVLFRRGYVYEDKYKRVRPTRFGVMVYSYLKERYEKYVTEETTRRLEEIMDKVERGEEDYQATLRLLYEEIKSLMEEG
# T2: rGyr_hel (reverse gyrase helicase-like domain) (Thermotoga maritima, UniProt O51934 59-541)
# T2 sequence: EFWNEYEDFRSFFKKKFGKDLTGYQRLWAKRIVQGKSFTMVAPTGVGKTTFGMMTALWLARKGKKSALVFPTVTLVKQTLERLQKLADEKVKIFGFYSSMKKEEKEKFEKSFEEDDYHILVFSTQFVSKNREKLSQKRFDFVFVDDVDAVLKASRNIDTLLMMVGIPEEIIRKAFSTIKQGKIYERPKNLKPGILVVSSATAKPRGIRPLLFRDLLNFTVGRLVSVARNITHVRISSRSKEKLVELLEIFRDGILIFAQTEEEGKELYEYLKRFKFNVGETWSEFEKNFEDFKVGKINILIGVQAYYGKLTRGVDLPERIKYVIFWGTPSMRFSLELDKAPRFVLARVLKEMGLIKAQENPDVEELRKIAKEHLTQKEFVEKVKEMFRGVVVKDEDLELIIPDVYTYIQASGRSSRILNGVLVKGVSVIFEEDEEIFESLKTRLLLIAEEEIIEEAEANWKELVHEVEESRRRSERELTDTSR
# T3: rGyr_hel K106Q (Thermotoga maritima, UniProt O51934 59-541, K106Q)
# T3 sequence: T2 sequence with K48Q
# B1: 60-base ssDNA (ssDNA)
# DNA: AAGCCAAGCTTCTAGAGTCAGCCCGTGATATTCATTACTTCTTATCCTAGGATCCCCGTT
# Legend:
# Experiment in all cases: fluorescence anisotropy
# [1] = molecular target: T1, rGyr_fl Y851F (full-length reverse …)
# [2] = molecular target: T2, rGyr_hel (reverse gyrase helicase-like …)
# [3] = molecular target: T1, rGyr_fl Y851F (full-length reverse …); remark: listed apart in the source
# [4] = molecular target: T1, rGyr_fl Y851F (full-length reverse …); remark: listed apart in the source
# rGyr_hel K106Q = molecular target: T3, rGyr_hel K106Q
# [5] = molecular target: T1, rGyr_fl Y851F (full-length reverse …); remark: listed apart in the source
binder,measurement,setting,value
B1,Kd,[1],45 ± 2 nM
same,Kd,[2],600 ± 70 nM
same,Kd,[3],39 ± 1 nM
same,Kd,[4],38 ± 2 nM
same,Kd,rGyr_hel K106Q,180 ± 30 nM
same,Kd,[5],36 ± 1 nM
